Data published in paper doi:10.1101/2022.04.27.489770.

Biological target: Spt6-YW with a C-terminal 3XFLAG epitope tag (S. cerevisiae) (UniProt P23615)
Test: co-IP

UniProt P23615, sequence (P23615 whole entry): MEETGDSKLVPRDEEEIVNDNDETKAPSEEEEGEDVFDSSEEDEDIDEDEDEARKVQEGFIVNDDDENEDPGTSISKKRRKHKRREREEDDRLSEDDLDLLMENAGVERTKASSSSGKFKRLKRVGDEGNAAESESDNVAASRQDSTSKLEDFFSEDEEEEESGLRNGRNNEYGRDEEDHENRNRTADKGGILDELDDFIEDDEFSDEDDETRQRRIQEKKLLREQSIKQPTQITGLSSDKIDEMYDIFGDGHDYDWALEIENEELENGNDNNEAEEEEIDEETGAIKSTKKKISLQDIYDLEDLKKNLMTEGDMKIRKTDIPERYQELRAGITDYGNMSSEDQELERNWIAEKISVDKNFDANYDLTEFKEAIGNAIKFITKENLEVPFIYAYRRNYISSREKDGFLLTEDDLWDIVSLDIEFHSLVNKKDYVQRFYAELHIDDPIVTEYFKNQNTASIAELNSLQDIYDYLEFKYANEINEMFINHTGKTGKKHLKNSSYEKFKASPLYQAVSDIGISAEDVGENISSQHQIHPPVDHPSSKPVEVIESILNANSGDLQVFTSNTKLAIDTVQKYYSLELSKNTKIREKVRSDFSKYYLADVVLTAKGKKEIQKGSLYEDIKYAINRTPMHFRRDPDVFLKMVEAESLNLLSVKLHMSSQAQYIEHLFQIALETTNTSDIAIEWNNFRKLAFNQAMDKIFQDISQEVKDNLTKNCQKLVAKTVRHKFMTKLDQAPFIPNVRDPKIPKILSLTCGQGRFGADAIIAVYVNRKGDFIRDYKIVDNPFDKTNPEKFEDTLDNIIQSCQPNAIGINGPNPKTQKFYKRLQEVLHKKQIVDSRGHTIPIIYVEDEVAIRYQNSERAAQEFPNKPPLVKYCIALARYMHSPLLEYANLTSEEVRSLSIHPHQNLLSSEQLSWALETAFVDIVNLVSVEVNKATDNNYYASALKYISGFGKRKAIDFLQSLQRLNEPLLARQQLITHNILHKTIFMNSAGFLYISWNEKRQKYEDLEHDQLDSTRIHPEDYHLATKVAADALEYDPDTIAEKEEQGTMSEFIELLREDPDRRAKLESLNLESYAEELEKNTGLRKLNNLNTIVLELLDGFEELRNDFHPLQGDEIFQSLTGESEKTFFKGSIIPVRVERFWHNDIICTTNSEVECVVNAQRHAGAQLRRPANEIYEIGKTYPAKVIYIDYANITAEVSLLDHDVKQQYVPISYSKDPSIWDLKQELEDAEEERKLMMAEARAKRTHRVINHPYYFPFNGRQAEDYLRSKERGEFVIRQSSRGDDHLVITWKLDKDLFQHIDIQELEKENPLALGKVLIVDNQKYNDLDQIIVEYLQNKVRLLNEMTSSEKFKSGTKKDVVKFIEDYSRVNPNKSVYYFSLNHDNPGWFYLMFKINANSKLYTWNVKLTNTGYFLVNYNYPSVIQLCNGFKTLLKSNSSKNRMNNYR

fold reduction of co-immunoprecipitation against wild-type Spt6: 2 fold
B1: Mcm4-V5 (natural protein)
chain: MSQQSSSPTKEDNNSSSPVVPNPDSVPPQLSSPALFYSSSSSQGDIYGRNNSQNLSQGEGNIRAAIGSSPLNFPSSSQRQNSDVFQSQGRQGRIRSSASASGRSRYHSDLRSDRALPTSSSSLGRNGQNRVHMRRNDIHTSDLSSPRRIVDFDTRSGVNTLDTSSSSAPPSEASEPLRIIWGTNVSIQECTTNFRNFLMSFKYKFRKILDEREEFINNTTDEELYYIKQLNEMRELGTSNLNLDARNLLAYKQTEDLYHQLLNYPQEVISIMDQTIKDCMVSLIVDNNLDYDLDEIETKFYKVRPYNVGSCKGMRELNPNDIDKLINLKGLVLRSTPVIPDMKVAFFKCNVCDHTMAVEIDRGVIQEPARCERIDCNEPNSMSLIHNRCSFADKQVIKLQETPDFVPDGQTPHSISLCVYDELVDSCRAGDRIEVTGTFRSIPIRANSRQRVLKSLYKTYVDVVHVKKVSDKRLDVDTSTIEQELMQNKVDHNEVEEVRQITDQDLAKIREVAAREDLYSLLARSIAPSIYELEDVKKGILLQLFGGTNKTFTKGGRYRGDINILLCGDPSTSKSQILQYVHKITPRGVYTSGKGSSAVGLTAYITRDVDTKQLVLESGALVLSDGGVCCIDEFDKMSDSTRSVLHEVMEQQTISIAKAGIITTLNARSSILASANPIGSRYNPNLPVTENIDLPPPLLSRFDLVYLVLDKVDEKNDRELAKHLTNLYLEDKPEHISQDDVLPVEFLTMYISYAKEHIHPIITEAAKTELVRAYVGMRKMGDDSRSDEKRITATTRQLESMIRLAEAHAKMKLKNVVELEDVQEAVRLIRSAIKDYATDPKTGKIDMNLVQTGKSVIQRKLQEDLSREIMNVLKDQASDSMSFNELIKQINEHSQDRVESSDIQEALSRLQQEDKVIVLGEGVRRSVRLNNRV
